Here are results for 41 sequences from the nanobody polyreactivity screen of Harvey et al. (2022).

This data set in a line: yeast display, Sf9 membrane polyspecificity reagent, FACS + sequencing; frameworks hold sequencing errors. The gist of the method: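 Galactose-induced (36–48 hours) yeast carrying a synthetic nanobody display library were exposed to 10% biotinylated, detergent-solubilized Sf9 membrane reagent at 4 °C for 1 hour. FACS followed streptavidin microbead enrichment, using low and high (top ~1%) gates for expression (anti-HA) and reagent binding (streptavidin). Colony PCR, MiSeq 2 × 250 sequencing and CDR-length filtering followed. Labels for polyreactivity reflect the gate of origin.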
Regarding “PVQLVESGGGLVQAGGSLRLSCAASGIIFVKYAMGWYRQAPGKERELVAAISTRGGSTYYADSVKGRFTISRDNAMNTVYLQMNSLKPEDTAVYYCAADATRKSQLPNTVPYDYWGQGTQVTVSS”, the “polyreactivity (PSR sort gate)” value is “high polyreactivity”.
To “PVQLVESGGGLVQAGGSLRLSCAASGSTFPYYDMGWYRPAPGKEREMVAAISASTGSTYYADSVKGRFTISRDKAKITVYLHMYSLKPEVTAVYYCAAAYYYWYTAYDYWGQGTQVTVSS” belongs “high polyreactivity”; to “PVQLVESGGGLVQAGGSLRLSCAASGSTFVVYAMGWYRQAPGKERELVAAITSGVSTNYADSVKGRFTISRDNAKNTVYLQMNSLKPEDTAVYYCNKDVRPAYRWYDYWGQDTQVTVSS”, “low polyreactivity”; to “PVQLVESGGVLVQAGCILRLSCAASGSTFYGYAMGWYRQAPGKERELVAANTSTVITDYADSVKGRFTISRDNAKNTFYFQMNSLKPEVPAVYDCNKERATSVTAEFRGDDAYWVQGTQVTVSS”, “low polyreactivity”.
Then “QAELVESGGGLVQAGGSLRLSCAASGFTFTAYAMGWYRQAPGKERELVAAISYRGGRTNYAYSVKGRFTISRDNAKNTVYLQMNSLKPEDTAVYYCAARPRISTREMDYWGQGTQVTVSS”, with “high polyreactivity”; and “QAQLQESCGSLVQAGGGQRLSCAASGYISVGTVIGWYRQAPSKERELVASIDQGANTNYADSVKGRFTISRDNAKNNVYLKMNSLKPEDTAVYYCATESTYILNYWGQGTQVTVSS”, with “low polyreactivity”.
Then “QAQLQESGGSLVQAGGGLRLSCAASGYISVGSVMGWYRQAPSKERELVASIDQGANTNYADSVKGRFTISRDNAKNNVYLQMNSLKPEDTAVYYCATVTTYILNYWGQGTQVTVCS”, with “low polyreactivity”; and “QAQLQESGGSLVQAGGGLRLSCAASGYSSVGSVMGWYRQAPSKEREHVASIDQGANTNYADSVKGRFTISRDNAKNNVYLQMTSLKPEDTAVYYCATETTYILNYWGQGTQVTVSS”, with “low polyreactivity”; and “QAQLQESGGSLVQAGGRLRLSCAASGYISVGSVMGWYRQAPSKERELVASIDQVANTNYADSVKGRFTISRDNAKNNVYLQMNSLKPEDTAVYYCATETTYILNYWGQVTQVTVSS”, with “low polyreactivity”.
With “QAQLVESGGGLVQAGGSLRLICAASGSTFGVNAMGWYTQAPGKERELVAIITSTTYADSVKGRFTISRDNAKNTVYLQMNSLKPEDTAVYYCAKVQERVTKGRFYLLEYYWGQGTQVTVSS”, the “polyreactivity (PSR sort gate)” value was “low polyreactivity”.
Consider “QCQLVVSGGGLVQAGGSLRISCSASGSTFGVYSMGWYRQAPGKERELFATINSGGSTNYADSVKGRFTISRDNAKNTVYLQMNSLKPEDTAVYYCASGPFWQDFYVYEYDYWGQGTQVTVSS”, for which the “polyreactivity (PSR sort gate)” value is listed as “low polyreactivity”.
For “QDHLVESGGCLVQAGGSLRLSCSASGRIFRYYAMGWYRHAPGKERELVAAIRNGGSTYYADSVKGRFTISRDNAKNTVYLQMNSLKPEDTAVYYCAAGYNYVSHRCGDWGQGSQVTVSS”, the “polyreactivity (PSR sort gate)” value is listed as “high polyreactivity”.
On to “QDHLVESGGGLVHAGGRLRLSCAASVRIFTAYAMGWYRQAPGTERELVPAISSGDSTYSADSVKGRFTISRDNAKNSVYLQMNSLKPVVTAVYSCATGVYPDFEYVSWGQGTQVTGSS”, for which the “polyreactivity (PSR sort gate)” value was “low polyreactivity”.
Then “QDHLVESGGGLVQAGCSLRLTCAASGSIFIPNAMGWYRQAPGKERYLVAAIRSGGSSYYADSVKGRFTISRDNAKNTVYLQMNSLKPEDTAVYYCAADTYTYYYYLARYYYWGQGTQVTVSS”, with “low polyreactivity”.
Then “QDHLVESGGGLVQAGGSLRLSCAASGRIFFGYAMGWYRQATGKERELVATISYNDTSTYYADSVKGRFTISRDNAKNTVYLQMNCLKPEDTAVNYCSKSLGAPASDVYWGQGTQVTVSS”, with “low polyreactivity”.
To “QDLLVESAGGLVQAGGSLRLSCAASGRNFPYKAMGWYRPAPGKERELVAAISSGGSTNYADSVKGRFTTSRDNAKNTVYLQMNSLKPEDTAVYYCAVGYSYYPSDEFDYWGQGTQVTVSS” belongs “low polyreactivity”; to “QDPLVESGGGLVQAGGSLSLSCAASGRNIPVYAMGWYSQAPGKERELVATISYSGSSTYYADSVKGRFTNSRDNAKNTVYLEMYSLKPEDTAVYYWNADAFGPPGVQYYNWGQGTKVTVSS”, “low polyreactivity”.
For “QDQHGESGGGLVQAGGSLRLSCAASGFIFWSYTMGWYRQAPGKERELVAVITGSGSTYYADSVKGRFTISRDNAKNTVYFQMNSLKPEDTALYYCATEVHVTAWTFEYEYWGQGTQVTVSS”, the “polyreactivity (PSR sort gate)” value is reported as “low polyreactivity”.
Take “QDQHVESAGGLVQAAGSLRLSCAASGSTFWYYVMGWSRQAPGQVRELVAAISTRGDSTYYADSVKGRFTISRDNANNSVYLQMYSLKPEDTAVYYCAKSRQSSGRVRFDYWGQGTQVTVSS”: the “polyreactivity (PSR sort gate)” value was “low polyreactivity”.
On to “QDQHVESAGGLVQAGGSLRLSCAATGFTFYYNPMRWYRQAPGKERELFASITRSGGPTYYADSVKGRFTISRDIAKHTVYLQMNSLKPEDTAVYYCARRYPGGYYWGHGTQVTVSS”, for which the “polyreactivity (PSR sort gate)” value is “high polyreactivity”.
“QDQHVESGGGLDQAGGSLRLSCAASGRIFSYNTMGWYRQAPGQERELVAASSSSGGSTYYADSVKGRFTISRDNAKNTVYLQMNSLKPEDTAVYYCNAVGRFSTRREYWGQGTQVTVSS”: the “polyreactivity (PSR sort gate)” value is on record as “high polyreactivity”.
In the case of “QDQHVESGGGLVHAGGSLRLSCAASGRIFKVYAMGWYRQPPGKERQLVASIRWNTGSTYYADSVKGRFTISRDNAKNTVYLQMNSLKPEDTAVYYCNSRGYYQGRYGYWGQGTQVTVSS”, the “polyreactivity (PSR sort gate)” value is on record as “high polyreactivity”.
In the case of “QDQHVESGGGLVQAGCSLRLSCAASGRTFTYNAMGWYRQAPGKERELVASISSRGGSTYYADSVKGRFTISRDNAKNTVYLQMNSLKPEDTAVYYCAARWRYQLSGSRLSYGKYDYWGQGTQVTVSS”, the “polyreactivity (PSR sort gate)” value is given as “high polyreactivity”.
Then “QDQHVESGGGLVQAGGSLRLSCAASGHTFRLYTMGWYRQAPGKEREFVAAIRRRTGSTYYADSVKGRFTISRDNAQNTVYLQRNSMKAEVTAVYYCNAVGDARYNYRGQGTQVTVSS”, with “high polyreactivity”.
To “QDQHVESGGGLVQAGGSLRLSCAASGLIFYYNMGWNRQAPRKERELVAAISSSGGSTSYADSVKGRFTISRDNAKNTVYLQMNSLKPEDTAVYYCAADSYPAYLGFVGFDYWGQGTQVTVSS” belongs “low polyreactivity”.
Then “QDQHVESGGGLVQAGGSLRLSCAASGRTFGNYAMGWYRQAPGKERELVADITRRGGSTSYADSVKGRFTISRDNAKNTVYLQMNSLKPEDTAVYYCNKAADGSSHYDYWGQGTQVTVSS”, with “low polyreactivity”.
Turning to “QDQHVESGGGLVQAGGSLRLSCAASGRTFVFYAMGWYRQAPGKERELLAVIRVIGGSTKYADSVKGRFTISRDNAKNTVYLQMNSLKPVDTAVYYCAADGVVVVAAYMYYWGQGTQVTVSS”, the “polyreactivity (PSR sort gate)” value is “low polyreactivity”.
In the case of “QDQHVESGGGLVQAGGSLRLSCAASGRTFYRNAMGWYRQAPGKEREFVAVISVSCGSTYYADSVKGRFTISRDNAKNTVYLQMNSLKPEDTAVYYCAKRGPVRKTAYDYCGQGTQVTVSS”, the “polyreactivity (PSR sort gate)” value was “low polyreactivity”.
To “QDQHVESGGGLVQAGGSLRLSCAASGSTFYIYARGWYRQAPGKERELVARISGSGGSTYYADSVKGRFTISRDNAKNTVYLQMNSLKPEDTAVYYCAAEDIYKYYQYYAFPYYRYDYWGQGTQVTVSS” belongs “low polyreactivity”; to “QDQHVESGGGLVQAGGSLRLSCAASGSTYRDNAMGWSRQAPGKERELVAAISVSGASTYYADSVKGRFTISRDNAKNTVYLQMNSLKPEDTAVYDCAKSLYQALSLSFFIFGYWGQGTQVTVSS”, “low polyreactivity”; to “QDQHVESGGGLVQAGGSLRLSCAASGYILRCNTMGWSRKAPGKERELVAAISSRGGITNYADSVKGRFTFSRDNAKNTVYLQMNSRKPEDTAVYYCATYWQYRYDYWGQGTQVTVSS”, “low polyreactivity”.
For “QDQHVESGGGLVQAGGSLRLSCSATGRIFTSYVMGWYRQPQGKERQLVAAITRSGGSTYYADSVKVRFTISRDTAKNTVYLQMKSLIPVDTAVYYCNALTRLQIGGEGGGYWGKGTQVTVSS”, the “polyreactivity (PSR sort gate)” value is “high polyreactivity”.
To “QDQHVESGGGLVQAGGSLRLSSAASGFTFKGNAMGWYRQGPGKVMELVATITQSAGSTYYADSVKGRFSISRDNAKNTVYLQMNSLKPEDTGVYFCNADPITLYYYSWYNYWGQGTQVTVSS” belongs “low polyreactivity”.
To “QDQIVESGGGLVQAGGSLRLSCAASGIIFWSYAMAWYRQAPGKERELVAAINTSGDSSYYADSVKGRFTISRDNAKNTVYLQMNSLKAEDTAVYYCAAKSSTRGDYWGQGTQVTVSS” belongs “low polyreactivity”; to “QDQIVESGGGYDQAGGSLRLTCAASGRIFRGNDMGSYRQAPGKERELVASISGTGGRTYYADSVKGRFTISRDNAKNTVYLQMNSLKPEDPAVYYCAVRTSLWGYYYWGHGTQVTVSS”, “high polyreactivity”; to “QDQIVESGVGLVQAGGTLRLSCAASGFTFRRYVMGWYRQAPGKERELVAAISQSGGSTYYADSVKGRFTISRDNAKNTVYLQMKSLKPEDTAVYYCAATGAFWYPYDYWGQGTQVTVSS”, “high polyreactivity”.
Then “QDQLEESGGGLVQAGGSLRLSCAASGFTFGNNAMGWYRQAPGKERELDAAISKRGSSTYYADSVKGRFTISRDNAKNTVYLLMNSLKPDDTAVYYCAAQTPYYLLYDTGDYLGQGTQVTVSS”, with “high polyreactivity”.
On to “QDQLEESGGGLVQAGGSLRLSCAASVRTFRDNAMGWSRQATGKQRQLVAAITQSGASTFYADSVKGRFTISRDNAKNSVYLQMNSLKADDTAVYYCAALRRQGRYVYGYWGQGTQVTVSS”, for which the “polyreactivity (PSR sort gate)” value is on record as “high polyreactivity”.
For “QDQLEESGGGLVQAGGSLRLSFAASGSTFYGYARGWYRPAPGKERELVAAISVNGGSTYYADSVKGRFTISRDNAKNTVYLQMNSLKPDETAVYYCAAGSGWRFDYWGQGTQVTVSS”, the “polyreactivity (PSR sort gate)” value is on record as “low polyreactivity”.
In the case of “QDQLGESGGGIVQAGGSLRLSCASSGINFLDKAMGWYRPAQGKETELVAAYADSVKGRFTISRDNAKNTVYLQMNSLSAEDTAVYYCNAGWIRYYGFSIVSYDYWGQGTQVTVSS”, the “polyreactivity (PSR sort gate)” value is listed as “low polyreactivity”.
Then “QDQLGESGGGLVQAGGSLRLSCAASGRTFNGYAMGWYRQAPGKVREFVAAITSNGARTYYADSVKGRFTISRDNAMNSVYLQMNSLKPEDTAVFYCAKRFARRSQRYDYWGQGTQVTVSS”, with “high polyreactivity”.
